Experimental data reported in patent US7968297B2, “Method for identification, isolation and production of antigens to a specific pathogen” (Intercell AG, priority 2001, dated 2011).

B1: IsaA, possibly adhesion/aggregation (protein, listed as Staphylococcus aureus)
chain: MKKTIMASSLAVALGVTGYAAGTGHQAHAAEVNVDQAHLVDLAHNHQDQLNAAPIKDGAYDIHFVKDGFQYNFTSNGTTWSWSYEAANGQTAGFSNVAGADYTTSYNQGSNVQSVSYNAQSSNSNVEAVSAPTYHNYSTSTTSSSVRLSNGNTAGATGSSAAQIMAQRTGVSASTWAAIIARESNGQVNAYNPSGASGLFQTMPGWGPTNTVDQQINAAVKAYKAQGLGAWGF
B2: extracellular matrix and plasma binding protein (protein, listed as Staphylococcus aureus)
chain: MNSNHAKASVTESVDKKFVVPESGINKIIPAYDEFKNSPKVNVSNLTDNKNFVASEDKLNKIADSSAASKIVDKNFVVPESKLGNIVPEYKEINNRVNVATNNPASQQVDKHFVAKGPEVNRFITQNKVNHHFITTQTHYKKVITSYKSTHVHKHVNHAKDSINKHFIVKPSESPRYTHPSQSLIIKHHFAVPGYHAHKFVTPGHASIKINHFCVVPQINSFKVIPPYGHNSHRMHVPSFQNNTTATHQNAKVNKAYDYKYFYSYKVVKGVKKYFSFSQSNGYKIGKPSLNIKNVNYQYAVPSYSPTHYVPEFKGSLPAPRV
B3: ORF2669 (protein, listed as Staphylococcus epidermidis)
chain: MHYLKKVTIYISLLILVSGCGDSKETEIKQNFNKMLNVYPTKNLEDFYDKEGYRDEEFDKDDKGTWIIRSEMTKQPKGKIMTSKGMVLHMNRNTRSTTGYYVIRKISEDNKSEIDDEEKKYPIKMVNNKIIPTQKINDNKLKNEIENFKFFVQYGSFKNSDDYKEGDIEYNPNAPNYSAQYHLSNDDYNIKQLRKRYDIKTKKTPRLLMRGAGDPKGSSVGYKNLEFTFVKNNEENIYFTDSINFNPSKGKSL
B4: ORF0442 (protein, listed as Staphylococcus epidermidis)
chain: MKKIKTISTLVAGLGIAFLGHTTHADAAENNNQQQSTYNYSTTEVSFSNSGNLYTSGQCTWYVYDKTGGKIGSTWGNANSWATAAQAAGFTVNNTPEEGAIMQSSEGAFGHVAFVESVNNDGSITVSEMNYDGGPFAISTRTISASEASSYNYIHLN
B5: ORF0979 (protein, listed as Staphylococcus epidermidis)
chain: MMIIVMLILSYLIGAFPSGLIIGKLFFKKDIRQYGSGNTGATNSFRVLGRPAGFIVTFLDIFKGFITVFFPLWFPVHADGVISTFFTNGLIVGLFAILGHVYPIYLKFNGGKAVATSAGVVLGVNPILLLILAIIFFSVLKIFKYVSLSSIIAAISCVIGSIIIHDYILLAVSGIVSIILIIRHKSNIVRIFKGEEPKIKWM
B6: ORF2260 (protein, listed as Staphylococcus epidermidis)
chain: MARIATKLGYPESNSFVTNTVIEFVLHNEAYPRLYRIKTRDTNLIKISQANEISRQITNGTMTLEEAKYQLEEIYVAKRDSSLPFKGIAAAIIATSFLYLQGGRLVDIITAVLAGTIGYLVVEILDRKLHAQFIPEFIGSLVIGIISVIGHAFVPSGDLATIIIAAVMPIVPGVLITNAIQDLFGGHMLMFTTKSLEALVTAFGIGAGVSSILILV
B7: ORF0355 (protein, listed as Staphylococcus epidermidis)
chain: MSKHSATLVIMFLITLLPIFQYQASAHATLEKSTPQQQGVIKDKPEAIKLEFNEPVNTKYSSVTLFDDKGKKIKDLKPITTGWSQTVVFSSEQIVNGTNTIEWHTVSADGHEVGDTFEFSVGKVRLKM
B8: ORF2673 (protein, listed as Staphylococcus epidermidis)
chain: MRYLKKVTIYISLLILVSGCGNGKETEIKQNFNKMLDMYPTKNLEDFYDKEGYRDEEFDKKDKGTWIVGSTMTIEPKGKYMESRGMFLYINRNTRTTKGYYYVRKTTDDSKGRLKDDEKRYPVKMEHNKIIPTKPIPNDKLKKEIENFKFFVQYGDFKNLKDYKDGDISYNPNVPSYSAKYQLSNNDYNVKQLRKRYDIPTNQAPKLLLKGDGDLKGSSIGSKSLEFTFIENKEENIFFSDGVQFTPSEDSES
B9: ORF2671 (protein, listed as Staphylococcus epidermidis)
chain: VKHSKKLLLCISFLLITFFIGGCGFMNKDDGKETEIKQNFNKMLNVYPTKNLENFYDKEGYRDEEFDKDDKGTWIVHSKMVIEPKGKNMESRGMVLFINRNTRTSKGYFIVNEIEKDRKGRPINNKKKYPVKMKNNKIIPTKPISNDKLKKEIENFKFFVQYGNFKDIKNYKDGDISYNPNVPSYSAKYQLSNNEYNVQQLRKRYDIPTKKVPKLLLKGDGDLKGSSVGSKNLEFTFIENKEENIYFTDSVLFSPSEDNES
B10: ORF2098 (protein, listed as Staphylococcus epidermidis)
chain: MIKKNKEELNDMEYLVTQENGTEPPFQNEYWNHFEKGIYVDKLSGKPLFTSEDKFESNCGWPSFSKALNDDEIVELVDKSFGMIRTEVRSEKANSHLGHVFNDGPKEKGGLRYCINSAAIQFIPYDKLEELGYGDLIKHFKK
B11: CRF2155 (protein)
chain: ILSAALSTPALLNNTSILPNCSFMSDTKSTTCCSLALSTLYAFALSPLLLILSTVSDTASAMSTANTYAPY
B12: CRF0497 (protein)
chain: LLHHLVLLHLSQLILAQLPYQELTLVRKMDSHVLGLYPLIVYVQFQMFPYHRYQNQSIHRFDLQYFH
B13: CRF1763 (protein)
chain: FEATKVPHNGSTLINNALNFNEALICLSLKVNIALIIPKIATIRGIVMLGYCGICKKAPRPAITPHTNAIYRNCFKSFTPKLLLHYYT
B14: ORF2931 (protein, listed as Staphylococcus aureus)
chain: MKLKSLAVLSMSAVVLTACGNDTPKDETKSTESNTNQDTNTTKDVIALKDVKTSPEDAVKKAEETYKGQKLKGISFENSNGEWAYKVTQQKSGEESEVLVADKNKKVINKKTEKEDTMNENDNFKYSDAIDYKKAIKEGQKEFDGDIKEWSLEKDDGKLVYNIDLKKGNKKQEVTVDAKNGKVLKSEQDH
B15: ORF1848 (protein, listed as Staphylococcus aureus)
chain: MKLKSFVTATLALGLLSTVGAALPSHEASADSNNGYKEMTVDGYHTVPYTISVDGITALHRTYFIFPENKNVLYQEIDSKVKNELASQRGVTTEKINNAQTATYTLTLNDGNKKVVNLKKNDDAKNSIDPSTIKQIQIVVK
B16: CRF2349 (protein)
chain: SIIVNTVSKCIKVRLVGISIATTFLNVACGFSKIRRANFSIACADVRSETPIAKTSLDKTSSSPPSILNGQSRSNQIGIFASLNLG
B17: ORF2958 (protein, listed as Staphylococcus aureus)
chain: MKMKNIAKISLLLGILATGVNTTTEKPVHAEKKPIVISENSKKLKAYYNQPSIEYKNVTGYISFIQPSIKFMNIIDGNSVNNIALIGKDKQHYHTGVHRNLNIFYVNEDKRFEGAKYSIGGITSANDKAVDLIAEARVIKEDHTGEYDYDFFPFKIDKEAMSLKEIDFKLRKYLIDNYGLYGEMSTGKITVKKKYYGKYTFELDKKLQEDRMSDVINVTDIDRIEIKVIKA
B18: CRF0145 (protein)
chain: FKYKKNRKIPSIMMQQIKITILYSYLTINKWEYLLNITPNKTVLPATGQKELILAVFTMFKVSKSFSLILTYFFGISQLIIGKKSANHVLTKSIIKYSSLYLIILYLGFLLIFSVSQSNVSTSFQLVLY
B19: CRF2729 (protein)
chain: GMKMISISDEINCLICCNCVGLCSFISSAKYIFWISISSNTVAKTSIKRGKFLVTARSIRR

Tested on: antibodies in human patient sera
Assay: Western blot reactivity of selected clones with human sera
Assay type: binding
Settings: 10 to 30 different human patient sera
Method: For Western blot analysis approximately 10 to 20 μg of total cellular protein was separated by 10% SDS-PAGE and blotted onto HybondC membrane (Amersham Pharmacia Biotech, England). The LamB or FhuA fusion proteins were detected using human serum as the primary antibody at a dilution of 1:5000 and anti human IgG antibodies coupled to HRP at a dilution of 1:5000 as secondary antibodies. Detection was performed using the ECL detection kit (Amersham Pharmacia Biotech, England). Alternatively, rabbit anti FhuA or mouse anti LamB antibodies were used as primary antibodies in combination with the respective secondary antibodies coupled to HRP for the detection of the fusion proteins.
Subsequent sequencing of a larger number of randomly picked clones (500 to 800 per screen) led to the identification of the gene and the corresponding peptide or protein sequence that was specifically recognized by the human patient serum used for screening. The frequency with which a specific clone is selected reflects at least in part the abundance and/or affinity of the specific antibodies in the serum used for selection and recognizing the epitope presented by this clone. […] All clones that are presented in Table 2 have been verified by Western blot analysis using whole cellular extracts from single clones to show the indicated reactivity with the pool of human serum used in the screen.
10 to 30 different human patient sera were subsequently used to evaluate the presence of antibodies against the selected immunogenic peptide sequences that have been discovered in the screen according to the present invention. To eliminate possible cross-reactivity with proteins expressed by E. coli, all sera were pre-adsorbed with a total cellular lysate of E. coli DHa cells expressing FhuA protein.
This analysis is summarized in Table 2 and as an example shown in FIG. 4 and is indicative of the validity of the present screen.

Row | Molecule | antibodies against selected epitope in patients
1 | IgG binding protein A [compound 2548] | production of antibodies in a large number of patients
2 | B1 | production of antibodies in a large number of patients
3 | B2 | production of antibodies in a large number of patients

Same assay, conditions: clone and its aa region are named in the cell; prefix A/B/C = screen the clone came from

Row | Molecule | Serum reactivity with relevant region (positive/total)
4 | B3 | B: SELAE27(22-51): 5/12
5 | B4 | C: GSBBM60(65-84): 1/1
6 | B5 | B: SELAH01(26-49): 5/12
7 | B6 | B: SELAG77(123-142): 12/12
8 | B7 | C: GSBBL39(63-86): 1/1
9 | B1 | B: SELAA47(238-259): 12/12
10 | B8 | B: SELAE25(23-54): 2/12
11 | B9 | B: SELAD21(36-61): 5/12
12 | B10 | A: SEFAQ50(15-57): 5/12

Same assay, conditions: positive sera / total sera tested; clone and its aa region named in the cell

Row | Molecule | Serum reactivity with relevant region (positive/total)
13 | ARF0280 (VYMLSSTRFIVRWYNNCNKSTNIINERSSGSIKSDGNSSCFFK) | SALAM59(25-43): 1/1
14 | B11 | SALAQ54(54-66): 1/12
15 | B12 | GSBXF31(19-34): 1/7
16 | B13 | C: GSBYI30(1-22): 1/1
17 | B14 | E: GSBZA13(22-37): 7/41
18 | B15 | E: GSBZB15(75-90): 6/41
19 | B16 | GSBXC92(52-67): 2/11
20 | B17 | F: SALBB59(154-168): 4/41
21 | B18 | SALAZ40(81-90): 2/12
22 | B19 | SALAQ25(40-56): 1/1
